The target of this assay is T1, MERS-CoV S1-NTD (residues 1-351) with 8xHis-tag and Twin-Strep-tag (MERS-CoV (deposit 6PXH of this paper)).
T1 chain: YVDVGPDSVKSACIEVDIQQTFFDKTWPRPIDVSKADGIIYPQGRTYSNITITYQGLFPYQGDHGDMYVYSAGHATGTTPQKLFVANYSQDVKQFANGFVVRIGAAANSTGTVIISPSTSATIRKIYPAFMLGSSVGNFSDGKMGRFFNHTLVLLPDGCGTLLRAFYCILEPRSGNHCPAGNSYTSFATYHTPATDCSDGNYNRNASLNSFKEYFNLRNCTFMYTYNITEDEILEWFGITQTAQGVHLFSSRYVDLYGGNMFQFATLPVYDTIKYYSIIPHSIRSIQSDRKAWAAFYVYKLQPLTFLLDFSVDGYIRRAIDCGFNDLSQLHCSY
Description: SPR.

One may read the Kd as the equilibrium constant for the complex coming apart. A high value points to weaker binding.

B1: G2 Fab (Fab, V domains shown)
VH: QVQLQQSGGELVKPGASVKLSCKTSGFTFSSSYISWLKQKPGQSLEWIAWIYAGTGGTEYNQKFTGKAQVTVDTSSSTAYMQFSSLTTEDSAIYYCARGGSSFAMDYWGQGTSVTVSS
VL: not shown
Take B1: the affinity, expressed as Kd, was 28 nM.

Values taken from paper PMC6935267 (Cell Reports, 2019).
